Settings: Pseudomonas aeruginosa (strain ATCC 15692 / DSM 22644 / CIP 104116 / JCM 14847 / LMG 12228 / 1C / PRS 101 / PAO1); pH 7.2; 20 °C; GdnHCl; CD + Fluorescence; Tris-HCl 50 mM; reversible: yes; whole UniProt chain shown

B1: Azurin wild type, P00282 (protein)
chain: MLRKLAAVSLLSLLSAPLLAAECSVDIQGNDQMQFNTNAITVDKSCKQFTVNLSHPGNLPKNVMGHNWVLSTAADMQGVVTDGMASGLDKDYLKPDDSRVIAHTKLIGSGEKDSVTFDVSKLKEGEQYMFFCTFPGHSALMKGTLTLK
  denaturant m value: 3.3 kcal/mol/M
  denaturant midpoint (higher = more stable): 2.78 M
  unfolding free energy: 9.4 kcal/mol

From FireProtDB (doi:10.1046/j.1432-1327.1999.00751.x)
